Data reported in paper PMC6256345 (2018).
Non-standard residues stand in square brackets, D forms with d. *: point of attachment. Pyrrolidinyl(2S-CHPh2) = c1ccc(C(c2ccccc2)[C@@H]2CCCN2*)cc1; pS = N[C@@H](COP(=O)(O)O)C(=O)O

What was measured:
[1] = target: T1, modified Tau peptide 3.2f pS214 epitope (Homo sapiens, UniProt P10636, SMILES …); assay: ITC
T1 chain: Ac-SRTP[pS]LP[dV]-{Pyrrolidinyl(2S-CHPh2)}

[2] = target: T2, modified Tau peptide 4.2f-I pS214 epitope (Homo sapiens, UniProt P10636, also: substituent position not given here); assay: ITC
T2 chain: Ac-SRTP[pS]LPG-{methoxy‑substituted benzhydrylpyrrolidine}

[3] = target: T3, modified Tau peptide 3.2a pS214 epitope (Homo sapiens, UniProt P10636, phosphoS214, N-acetyl, C-terminal L-Thr-(S)-2-benzhydrylpyrrolidine); assay: ITC
[4] = target: T4, modified Tau peptide 3.2d pS214 epitope (Homo sapiens, UniProt P10636, phosphoS214, N-acetyl, C-terminal D-Ala-(S)-2-benzhydrylpyrrolidine); assay: ITC
[5] = target: T5, modified Tau peptide 3.2c pS214 epitope (Homo sapiens, UniProt P10636, phosphoS214, N-acetyl, C-terminal L-Ala-(S)-2-benzhydrylpyrrolidine); assay: ITC
[6] = target: T6, modified Tau peptide 3.2b pS214 epitope (Homo sapiens, UniProt P10636, phosphoS214, N-acetyl, C-terminal Gly-(S)-2-benzhydrylpyrrolidine); assay: ITC
[7] = target: T7, modified Tau peptide 4.2d-II pS214 epitope (Homo sapiens, UniProt P10636, also: regioisomer, substituent position not given here); assay: ITC
T7 chain: Ac-SRTP[pS]LPG-{(methoxyethoxy)‑substituted benzhydrylpyrrolidine}

[8] = target: T1, modified Tau peptide 3.2f pS214 epitope; assay: FP competition
[9] = target: T3, modified Tau peptide 3.2a pS214 epitope; assay: FP competition
[10] = target: T4, modified Tau peptide 3.2d pS214 epitope; assay: FP competition
[11] = target: T8, modified Tau peptide 3.2e pS214 epitope (Homo sapiens, UniProt P10636, SMILES …); assay: FP competition
T8 chain: Ac-SRTP[pS]LPV-{Pyrrolidinyl(2S-CHPh2)}

[12] = target: T5, modified Tau peptide 3.2c pS214 epitope; assay: FP competition
[13] = target: T6, modified Tau peptide 3.2b pS214 epitope; assay: FP competition

B1: 14-3-3ζ (protein)
chain: MDKNELVQKAKLAEQAERYDDMAACMKSVTEQGAELSNEERNLLSVAYKNVVGARRSSWRVVSSIEQKTEGAEKKQQMAREYREKIETELRDICNDVLSLLEKFLIPNASQAESKVFYLKMKGDYYRYLAEVAAGDDKKGIVDQSQQAYQEAFEISKKEMQPTHPIRLGLALNFSVFYYEILNSPEKACSLAKTAFDEAIAELDTLSEESYKDSTLIMQLLRDNLTLWTSDTQGDEAEAGEGGEN
[1]
  Kd: 3.4 µM
[2]
  Kd: 4.7 µM
[3]
  Kd: 5.4 µM
[4]
  Kd: 3 µM
[5]
  Kd: 3.3 µM
[6]
  Kd: 5.6 µM
[7]
  Kd: 20.6 µM
[8]
  IC50: 7.6 µM
[9]
  IC50: 8.1 µM
[10]
  IC50: 6.2 µM
[11]
  IC50: 6.2 µM
[12]
  IC50: 5.3 µM
[13]
  IC50: 5.9 µM
